Experiments:
Assay in all cases: cell_activity
[1] = system: GinC4 zinc finger recombinase (synthetic); details: HEK293T; 107-fold in p263
[2] = system: Gin-Avr15Δ120 (synthetic repeats) (synthetic); details: for activity (fold luciferase reduction): HEK293T
[3] = system: Gin-AvrXa7 Δ128 (synthetic); details: E. coli
[4] = system: Gin-Pth15Δ120 (synthetic repeats) (synthetic); details: E. coli
[5] = system: TALEN A2 NT-αN (synthetic); details: HeLa; pair A1/A2
[6] = system: TALEN C2 NT-αN (synthetic); details: HeLa; pair C1/C2
[7] = system: GinC4 + Gin-Avr15Δ120 heterodimer (synthetic); details: HEK293T; ZFR-TALER heterodimer
[8] = system: TALEN A1 NT-αN (synthetic); details: HeLa; pair A1/A2

GCGGGAGGCGTGTCCAAAACCATGGTTTACAG (double strand) [C4-20G (C4 zinc finger site flanking Gin core)]
activity (fold luciferase reduction) [1]: > 80

GTGGTGTACAGTAGGGGGAGATGCAGCTGCTTCCAAAACCATGGTTTACAGGGTGGTTGCATCTCCCCCTACTGTACACCAC (double strand) [PthXo1-32G]
activity (fold less than cognate site) ([2]; E. coli): > 600 | activity (fold less than cognate) ([3]; non-cognate TALE site): > 100 | activity (fold over non-cognate site) [4]: > 600

TTAGCACCTGGTTGGAGGGGGTTTATAGCTTCATCCAAAACCGGGGTTTACAGGGTTCCTATAAACCCCCTCCAACCAGGTGCTAA (double strand) [Avr32GG]
activity (fold less than cognate) [3]: > 100

ATTCTTCCAGAATTGA (double strand) [TALEN A2 half-site]
activity (fold over NT-T) [5]: 9

TTAGCACCTGGTTGGAGGGGGTTTATAGCTTCAGCTTCATCCAAAACCATGGTTTACAGGGTTCCGGTTCCTATAAACCCCCTCCAACCAGGTGCTAA (double strand) [Avr44G]
activity (fold luciferase reduction) [2]: 20

TTAGCACCTGGTTGGAGGGGGTTTATAGCTTCACGAAATATTATAAATTATCAGGTTCCTATAAACCCCCTCCAACCAGGTGCTAA (double strand) [Avr32T]
activity (fold less than cognate core) ([2]; E. coli): > 1000 | activity (fold less than cognate) [3]: > 100

TTAGCACCTGGTTGGAGGGGGTTTATAGCTTCATCCAAAACCATGGTTTACAGGGTTCCTATAAACCCCCTCCAACCAGGTGCTAA (double strand) [Avr32G]
activity (fold luciferase reduction) [2]: 6 | activity (fold less than cognate site) [4]: > 600

CAGAATTGATACTGACT (double strand) [TALEN C2 half-site]
activity (fold over NT-T) [6]: 2

GCGGGAGGCGTGTCCAAAACCATGGTTTACAGGGTTCCTATAAACCCCCTCCAACCAGGTGCTAA (double strand) [Avr-G-ZF hybrid site]
activity (fold luciferase reduction) [7]: > 140

CCTGCAGCTCTCATTTT (double strand) [TALEN A1 half-site]
activity (fold over NT-T) [8]: 9
